Test results taken from patent US11433139B2, “Peptide vaccines against interleukin-31” (Zoetis Services LLC, priority 2018, dated 2022).

T1: canine IL-31 (Canis lupus familiaris, UniProt A0A8I3S3D1)
T1 construct: made in house; host or cells: CHO cells (CHROMOS ACE system)
T1 sequence (A0A8I3S3D1 24-159): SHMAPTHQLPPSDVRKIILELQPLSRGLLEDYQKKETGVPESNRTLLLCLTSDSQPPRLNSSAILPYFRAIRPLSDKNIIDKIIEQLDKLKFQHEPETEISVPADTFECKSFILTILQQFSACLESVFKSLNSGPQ


Key:
[1] = tested on: equine IL-31; assay: Biacore binding, single test concentration of antibody, equine IL-31 surface
Chain of equine IL-31 (as listed by the source): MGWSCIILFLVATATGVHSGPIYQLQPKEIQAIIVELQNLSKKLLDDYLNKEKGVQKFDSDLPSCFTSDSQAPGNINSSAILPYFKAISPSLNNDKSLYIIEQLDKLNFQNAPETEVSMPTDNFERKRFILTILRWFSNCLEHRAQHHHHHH
Experimental: For the indirect ELISA, binding (ELISA OD) to wildtype feline IL-31 and a feline IL-31 15H05 mutant which had mutations in the monoclonal antibody 15H05 epitope region was assessed. To confirm binding, biacore analysis was performed using canine, feline, equine, human, the feline 15H05 mutant, and feline 11E12 mutant IL-31 proteins as surfaces and a single test concentration of antibody. The feline IL-31 11E12 mutant had mutations in the monoclonal antibody 11E12 epitope region.
For the indirect ELISA method, antibody binding to wildtype and feline IL-31 15H05 mutant proteins was assessed. […] In comparison, the 11E12 antibody bound to the wild-type feline IL-31 and its binding was not impacted by the mutations in the 15H05 epitope region as evidenced by the data in FIG. 4. To confirm binding, biacore analysis was performed using canine, feline, equine, human, feline 15H05 mutant, and feline 11E12 mutant IL-31 proteins as surfaces and a single test concentration of antibody. Similar to ELISA observations, all antibodies tested bound to wildtype feline IL-31. In agreement with the data described above in this section, mouse antibodies 11 E12 and 15H05 both bound to canine and feline IL-31 surfaces. […] From this group of nine fully canine antibodies, only ZIL1 and ZIL9 cross-reacted with equine IL-31. Of note, antibody 15H05 was the only one of all assayed herein that bound to canine, feline, and equine IL-31 indicating some level of epitope conservation across the three species. In contrast, none of the antibodies described herein bound to human IL-31. Additional biacore surfaces were used to verify ELISA observations showing differential binding of antibodies to wildtype feline IL-31 and two proteins with mutations in the 15H05 (15H05 mutant) or 11 E12 (11E12 mutant) epitopes. […] Differing results can be attributed to differences in the two assay methodologies.

[2] = molecular target: canine IL-31; assay: Affinity of anti-IL-31 antibodies by surface plasmon resonance (Biacore), canine IL-31 surface; assay type: binding; conditions: IL-31 conjugated to the surface (FIG. 2)
Experimental: (§1) The affinity with which candidate mAbs bind canine and feline IL-31 was determined using surface plasmon resonance (SPR) on a Biacore system (Biocore Life Sciences (GE Healthcare), Uppsala, Sweden). To avoid affinity differences associated with differential surface preparation that can occur when immobilizing antibodies to surfaces; a strategy was employed where IL-31 was directly conjugated to the surface. Immobilization was obtained by amine coupling 5 μg/mL IL-31 using N-hydroxysuccinimide (NHS)/1-Ethyl-3-(3-dimethylaminopropyl) carbodiimide (EDC) chemistry. Chips were quenched with ethanolamine and the affinity with which all candidate mAbs bound to the immobilized IL-31 was evaluated. All curves were fit to a 1:1 model. Affinity constants (KD) less than 1×10^−11M (1E-11 M) are below the lower limit of quantitation of detection for the instrument. Results for affinity measurements are described herein.

[3] = tested on: feline IL-31; assay: Inhibition of feline IL-31 induced pSTAT3 signaling in canine DH-82 cells; assay type: cell-based; conditions: feline IL-31, pSTAT3, canine DH82 cells (FIG. 3)
Experimental: (§2) To identify candidates with inhibitory activity, antibodies were assessed for their ability to affect IL-31-mediated STAT3 phosphorylation in either a canine or feline cell-based assay. STAT3 phosphorylation was determined in canine DH-82 (ATCC® CRL-10389™) or feline FCWF4 macrophage-like cells (ATCC CRL-2787). DH82 and FCWF4 cells were primed with canine interferon gamma (R&D Systems, Minneapolis, Minn.) at 10 ng/mL for 24 hours or feline interferon gamma (R&D Systems, Minneapolis, Minn.) at 125 ng/mL for 96 hours, respectively, to increase receptor expression. Both cell types were serum starved for 2 hours prior to IL-31 and mAb treatment. Using two independent methods, all candidate mAbs were evaluated for their ability to inhibit either 1 μg/mL canine or 0.2 μg/mL feline IL-31 induced STAT3 phosphorylation. […] To ensure complex formation, a one hour co-incubation of mAb and IL-31 cytokine prior to cell stimulation was completed. IL-31 cell stimulation was carried out for five minutes. STAT3 phosphorylation was measured using AlphaLISA SureFire ULTRA™ technology (Perkin Elmer, Waltham, Mass.). In the case where antibody concentration and purity are unknown, hybridoma supernatants were qualitatively measured for their ability to inhibit STAT3 phosphorylation following a 1 hour co-incubation with […] IL-31. The potency of individual monoclonal antibodies defined by their ability to inhibit IL-31 mediated STAT3 phosphorylation in these assays was considered the key selection criteria for further advancement of select antibodies. The term potency refers to the IC50 value calculated from these assays and is the concentration of the antibody where signaling induced by IL-31 is reduced to one half its maximal value.
Target sequence in this assay (as listed by the source): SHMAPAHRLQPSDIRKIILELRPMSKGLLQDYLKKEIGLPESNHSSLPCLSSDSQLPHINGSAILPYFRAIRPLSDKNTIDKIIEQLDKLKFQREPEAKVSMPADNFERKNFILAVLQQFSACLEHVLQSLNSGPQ

[4] = tested on: feline IL-31; assay: Inhibition of feline IL-31 induced pSTAT3 signaling in feline FCWF4 macrophage-like cells; assay type: cell-based; conditions: for potency (IC50) against feline IL-31 in feline FCWF4 cells: 0.2 μg/mL feline IL-31, pSTAT3, FCWF4 cells (FIG. 3)
Experimental: as §2

[5] = tested on: feline IL-31; assay: IL-31 induced pruritus model in cats, antibody pre-bound to feline IL-31; assay type: in vivo, cat
Experimental: To test the preliminary efficacy of mouse: feline 11E12 chimera, mouse: feline 15H05 chimera, and felinized 11 E12 (Feline 11E12 1.1), an IL-31 induced pruritus model in cats was developed. Following an intravenous dose of 0.5 μg/kg feline IL-31 (SEQ ID NO: 159; Feline_IL-31_E_coli), the corresponding nucleotide sequence for which is (SEQ ID NO: 160; Feline_IL-31_E_coli), cats will portray transient pruritic behavior that includes (but is not limited to) licking, chewing, scratching, and head or body shaking. Rubbing up against the cage was not considered a pruritic activity. Pruritic observations take place by a trained investigator for 30 minutes prior to administration of the IL-31 protein and for 1 hour following. For this study, a baseline challenge with feline IL-31 was performed up to 1 month prior to dosing with antibody. On day zero, a 0.5 mg/kg antibody dose was combined with 0.5 μg/kg of feline IL-31 at room temperature for 60 minutes prior to injecting the pre-bound complex into each animal. A “no mAb” control was included for a control. The dose of mAb represents a gross molar excess of antibody to cytokine. Pruritic activity was monitored as described on days 0, 7, and 21.
Target sequence in this assay (as listed by the source): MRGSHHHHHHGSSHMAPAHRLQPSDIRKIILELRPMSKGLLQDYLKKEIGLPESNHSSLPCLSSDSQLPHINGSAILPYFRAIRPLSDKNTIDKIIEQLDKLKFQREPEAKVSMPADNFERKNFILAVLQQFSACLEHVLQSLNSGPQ

[6] = molecular target: feline IL-31; assay: Affinity of anti-IL-31 antibodies by surface plasmon resonance (Biacore), feline IL-31 surface; assay type: binding; conditions: IL-31 conjugated to the surface (FIG. 2)
Experimental: as §1
Target sequence in this assay (as listed by the source): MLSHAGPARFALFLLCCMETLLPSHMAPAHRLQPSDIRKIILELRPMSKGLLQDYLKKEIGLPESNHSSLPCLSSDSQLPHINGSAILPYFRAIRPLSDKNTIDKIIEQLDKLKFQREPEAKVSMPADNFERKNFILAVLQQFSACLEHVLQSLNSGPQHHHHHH

[7] = molecular target: T1, canine IL-31; assay: Inhibition of canine IL-31 induced pSTAT3 signaling in canine DH-82 and feline FCWF4 cells; assay type: cell-based; conditions: canine IL-31; canine and feline cell types, cell type of the values not specified
Experimental: as §2

[8] = 0.5 mg/kg antibody pre-bound with 0.5 μg/kg feline IL-31, days 0, 7, 21

Row | Molecule | binding to equine IL-31 (Biacore) [1] | affinity (KD) to canine IL-31 [2] | potency (IC50) against feline IL-31 in canine DH82 cells [3] | potency (IC50) against feline IL-31 in feline FCWF4 cells [4] | potency (IC50) against feline IL-31 in feline FCWF4 cells ([4]; listed as Felinized 11E12 1.1) | pruritus scores compared to placebo control ([5]; 0.5 mg/kg antibody pre-bound with 0.5 μg/kg feline IL-31, days 0, 7, 21, 0.5 mg/kg) | pruritus scores compared to placebo control ([5]; 0.5 mg/kg antibody pre-bound with 0.5 μg/kg feline IL-31, days 0, 7, 21, listed as feline 11E12 1.1, 0.5 mg/kg) | affinity (KD) to feline IL-31 [6] | pruritus scores compared to placebo control [5, 8] | fold increased IC50 relative to mouse: feline 11E12 chimera ([4]; feline IL-31 induced pSTAT3 signaling in feline FCWF4 cells) | IC50 against canine IL-31 [7]
1 | ZIL9: fully canine anti IL-31 antibody, VH SEQ ID NO: 83, VL SEQ ID NO: 85 (antibody, listed as Canis familiaris, V domains shown) VH: EVQLVESGGDLVKPPGSLRLSCVASGFTFSSYDMTWVRQAPGKGLQWVADVNSGGTGTAYAVAVKGRFTISRDNAKKTLYLQMNSLRAEDTAVYYCAKLGVRDGLSVWGQGTLVTVSS VL: SSVLTQPPSVSVSLGQTATISCSGESLNEYYTQWFQQKAGQAPVLVIYRDTERPSGIPDRFSGSSSGNTHTLTISGARAEDEADYYCESAVDTGTLVFGGGTHLAVL | cross-reacted |  |  |  |  |  |  |  |  |  | 
2 | Feline 11E12 1.1: felinized 11E12, FEL_11E12_VH1 paired with FEL_11E12_VL1 (antibody, V domains shown) VH: QVLLVQSGAEVKKPGASVKIFCKASGYSFTYYDINWLRQAPEQGLEWMGWIFPGDGGTKYNETFKGRLTLTADTSTNTVYMELSSLRSADTAMYYCARGGTSVIRDAMDYWGQGALVTVSS VL: EIQMTQSPSSLSASPGDRVTITCRASESVDNYGISFMHWYQQKPGKVPKLLIYRASNLESGVPSRFSGSGSGTDFTLTISSLEPEDAATYYCQQSNKDPLTFGQGT |  | loss of affinity | loss of potency | loss of potency | approximately a two-fold decrease in potency | did not reduce pruritus at day zero | lack of efficacy | loss of affinity |  |  | 
3 | mouse: feline 11E12 chimera: mouse 11E12 variable regions on feline IgG constant regions (antibody) heavy: QVQLQQSGAELVKPGASVKLSCKASGYTFKYYDINWVRQRPEQGLEWIGWIFPGDGGTKYNETFKGKATLTTDKSSSTAYMQLSRLTSEDSAVYFCARGGTSVIRDAMDYWGQGTSVTVSSASTTAPSVFPLAPSCGTTSGATVALACLVLGYFPEPVTVSWNSGALTSGVHTFPAVLQASGLYSLSSMVTVPSSRWLSDTFTCNVAHPPSNTKVDKTVRKTDHPPGPKPCDCPKCPPPEAAGAPSIFIFPPKPKDTLSISRTPEVTCLVVDLGPDDSDVQITWFVDNTQVYTAKTSPREEQFNSTYRVVSVLPILHQDWLKGKEFKCKVNSKSLPSPIERTISKAKGQPHEPQVYVLPPAQEELSRNKVSVTCLIKSFHPPDIAVEWEITGQPEPENNYRTTPPQLDSDGTYFVYSKLSVDRSHWQRGNTYTCSVSHEALHSHHTQKSLTQSPGK light: DIVLTQSPASLAVSLGQRATISCRASESVDNYGISFMHWYQQKPGQPPKLLIYRASNLESGIPARFSGSGSRTDFTLTINPVETDDVATYYCQQSNKDPLTFGAGTKLELKRSDAQPSVFLFQPSLDELHTGSASIVCILNDFYPKEVNVKWKVDGVVQNKGIQESTTEQNSKDSTYSLSSTLTMSSTEYQSHEKFSCEVTHKSLASTLVKSFQRSECQRE |  | slightly superior |  |  |  |  |  | slightly superior | did not achieve a significant reduction in pruritus at any timepoint |  | 
4 | mouse: feline 15H05 chimera: mouse 15H05 variable regions on feline IgG constant regions (antibody) heavy: QVQLQQSAAELARPGASVKMSCKTSGYTFTSYTIHWIKQRPGQGLEWIGNINPTSGYTENNQRFKDKTTLTVDRSSNTAYLQLHSLTSEDSAVYFCARWGFKYDGEWSFDVWGAGTTVTVSSASTTAPSVFPLAPSCGTTSGATVALACLVLGYFPEPVTVSWNSGALTSGVHTFPAVLQASGLYSLSSMVTVPSSRWLSDTFTCNVAHPPSNTKVDKTVRKTDHPPGPKPCDCPKCPPPEAAGAPSIFIFPPKPKDTLSISRTPEVTCLVVDLGPDDSDVQITWFVDNTQVYTAKTSPREEQFNSTYRVVSVLPILHQDWLKGKEFKCKVNSKSLPSPIERTISKAKGQPHEPQVYVLPPAQEELSRNKVSVTCLIKSFHPPDIAVEWEITGQPEPENNYRTTPPQLDSDGTYFVYSKLSVDRSHWQRGNTYTCSVSHEALHSHHTQKSLTQSPGK light: DIQMNQSPSSLSASLGDTITVTCRASQGISIWLSWYQQKPGNIPKVLINKASNLHIGVPPRFSGSGSGTHFTLTITSLQPEDIATYYCLQSQTYPLTFGGGTKLEINRSDAQPSVFLFQPSLDELHTGSASIVCILNDFYPKEVNVKWKVDGVVQNKGIQESTTEQNSKDSTYSLSSTLTMSSTEYQSHEKFSCEVTHKSLASTLVKSFQRSECQRE |  | lost some affinity |  |  |  |  |  | lost some affinity | significant improvement (p<0.05) | approximately 2 fold | 28.61 µg/mL
